Measured values published in the nanobody polyreactivity screen of Harvey et al. (2022).

Test: yeast display, Sf9 membrane polyspecificity reagent, FACS + sequencing; frameworks hold sequencing errors
In short: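 Polyreactivity labels are assigned by the sorting gate from which each nanobody was recovered. The gates were low and high (top ~1%), set on anti-HA fluorescence for expression and streptavidin fluorescence for reagent binding. Before sorting, galactose-induced (36–48 hours) yeast display cells were stained for 1 hour at 4 °C with 10% biotinylated, detergent-solubilized Sf9 membrane reagent.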

| Sequence | polyreactivity (PSR sort gate) |
| --- | --- |
| HVQLVESGGGLVQAGGSRRLSCAASGRIFYGYAMGWYRQAPGKERELVAGISYRGARTYYADSVKGRFTISRDNAKNTVYLQMNSLKPEDTAVYYCNAVPYYPFAFGALDYWGQGTQVTVSS | high polyreactivity |
| HVQLVESGGGLVQAGVSLRLSCAASGSIFSPYAMGGFRPAPGKERELLAAISSSGGSTYYADSVKRRFTISRDNAKNTVYLQMNSLKPEDTAVYYCAADSATGIFDRLNYWGQGTQVTVSS | high polyreactivity |
| HVQLVESGGGLVQEGGRLRLSCAASGFIFQVNAMGWYRQAPGKERELVAAITGSDGSTSYADSVKGRFTISRDNAKNNVYLQMNSLKPEDTAVYYCAKEESVSTHYYHLIRFDQWGQGTQVTVSS | low polyreactivity |
| HVQLVESGGGLVQPGGSLRLSCAASGLTFPSYAMGWYRQAPGKERELVAAISSGDSTNYADSVKGRFTISRDNAKNTVYLQMNSLKPEDTAVYYCAVGLPHGGRSLYGSWYRFDYWGQGTQVTVSS | low polyreactivity |
| HVQLVESGRGLVQAGGSLRLSCAASGSTFPFYDRGWYRQAPGKERQLVDAITASVGNTYYADSVKGRFTISRDNAKNTVYLQMNSLKPEDTAVYYCNADELYTYIPDFDYWGQGSQVTVSS | low polyreactivity |
| HVQLVESGVGFVQAGGSLRLSCASSGSIFQAYAMGWYRQAPGNERELVAAISDSGGSTYYADSVKGRFTISRDNAKNTVYLQMNSLKPEDTEVYYCAADVYTRFWRVYRVDYWGQGTQVTVSS | low polyreactivity |
| HVQLVESGVGLVQAGGSLRLRCAASGRTLSVYAMGWYRQAPGKERELVAAITIRGGRTYYADSVKGRFTISRDNAKNTVYLQMNSLKPEDTAVYYCAAPPYVKMDYWGQGTQVTVSS | high polyreactivity |
| HVQLVETGGGLVQAGGSLRLSCAASGRIFYPYPMGWYRQAPRKERELLARISWGGGATYYADSVKGRFTISRDNAQNTVFLQMNSLKPEDTAVYYCAASYVGYWYRRGYGYWGQGTQVTVSS | high polyreactivity |
| HYHLVESGGGLVQAGGSLRLSCAASAFTFVQYAMGWYRQAPGKERELVATISKSGGITYYADSVKGRFTISRDNAKNTVYLQMNSLKPEDTAVYYCAAAWYYSSRGFHATWGHDYWGQGTQVTVSS | low polyreactivity |
| KVQLVEAGGGLVQAGGSLRLSCAASGFILIYYAMGWYRQAPGKERELFAAITWSGGSTYYADSVKGRFTISRDNEKNTVYLKMNTLKQEETAVDYCAAYVGGGDSNADHDYWGQGTQVTVSA | low polyreactivity |
| KVQLVESGAGLVQAGGSLRLSCAASGITFGWYAMGWYRQAPGKERELVATINSGGSTNYADSVKGRFTISRDNAQNSVYLQMNSLKAEDTAVYYCAADGLIRWYDYWGQGTQVTVSS | low polyreactivity |
| KVQLVESGGGLFQAGGSLGLSCAPSGNTFYHYAMGWYRQSPGKERELVAGIRYNGGSTYYADSVKGRFTISRDNAKNTVYLHMKSLKPEDTAVYYCATIGYTGYAYRYGYWGQGTQVTVSS | high polyreactivity |
| KVQLVESGGGLVQAGGRLRISCAASGRICYSNVMGWSRQAPGKERELVAAIFSGGSTYYADSVKGRFTISRDNAKNTVYLQMNSLKPEDTAVYDCAADYYYPFDYWGQGTQVTVSS | low polyreactivity |
| KVQLVESGGGLVQAGGSLRLSCAASGFIFYYYAMGGYRQAPGKERELVAVLTESGSSTYYADSVKGRFTISRDNAKNSVYLQMNRLKPEDTAVYYCNADFWPYTGKYDYWGQGTQVTVSS | low polyreactivity |
| KVQLVESGGGLVQAGGSLRLSCAASGFIFYYYAMGWYRQAPGKERELVAAISTDGGSTYYADSVKGRFTISRDNAKNTVYLQMNSLKPEDTAVYYCNAPYYGWGYWPLEYIRYEYWGQGTQVTVSS | low polyreactivity |
| KVQLVESGGGLVQAGGSLRLSCAASGFTFYIYAMGWYRPAPGKEREVVAAISARGGSTYYADSVKGRFTISRDNAKTTGYLQMNSLKPEDTAVDYCNALYIYAEIYGRGFWGQGTQVTVSS | high polyreactivity |
| KVQLVESGGGLVQAGGSLRLSCAASGITFYDYDMGWYRQEHGKERELVSAITWNGGSTYYADSVKGRFTISRDNAKNTVYLQMNSLKPVDTAVYYCAAESYYIYYYWGQGTQVTVSS | high polyreactivity |
| KVQLVESGGGLVQAGGSLRLSCAASGNPLLFNALGWYRQAPGKERELVARITSSGASTYYADSVKGRFTISRDNAKNTLYLQMNSLKAEDTAVYYCAARTRTRRGYTSGDYWGQGSQVTVSS | high polyreactivity |
| KVQLVESGGGLVQAGGSLRLSCAASGRIFRYYAMGWSRQAPGKERELVAAISRGGGSTYYADSVKGRFTISRDNAKNTVYLQMNSLKPEDTAVYYCANSVGRGPIGYDYWGQGTQVTVSS | high polyreactivity |
| KVQLVESGGGLVQAGGSLRLSCAASGRTFVYYAMGWYRQAPGKERELVAAISSGGSTNYADSVKGRFTISRDNAKNTVYLQMNSLKPEDTAVYYCNADWGFPDVKETGVRFDYWGQGTQVTVSS | low polyreactivity |
| KVQLVESGGGLVQAGGSLRLSCAASGSIFHNYDMGWYRQAPGKERELVADISRGGDTNYADSVKGRFTISRDNAKNTVYLEMKSLKPEDTAVYYCNATYWILDFPWWRETFDYWGQGTQVTVSS | low polyreactivity |
| KVQLVESGGGLVQAGGSLRLSCAASGSIFWDNVMGWYRQAPGNERELVADIDSWDGGSTYYADSVKGRFTISRDNAKNTVYLQMNSLKPEDTAVYYCNSDVLWWRGGDDFWGKGTQVTVSS | low polyreactivity |

| Sequence | polyreactivity (PSR sort gate) |
| --- | --- |
| KVQLVESGGGLVQAGGSLRLSCAASGSIFYVNAMGWYRQAPGKERELVARITLSGTSTYYADSVKGRLTISRDNAKNTVYLQMNSLKPEDTAVYYCAATYWSWISLRFYWGQGTQVTVSS | low polyreactivity |
| KVQLVESGGGLVQAGGSLRLSCAASGSTFQYYAMGWYRQAPGTERELVAAITSGGSTNYADSVKGRFTISRDNAKNTVYLQMNSLKPEDTAVYYCNADSSGWFPFDYWGQGTQVTVSS | low polyreactivity |
| KVQLVESGGGLVQAGGSLRLSCAPSGSIFPLNARGWYSQAPGKERELVAAISESGGRTYYADSVKGRFTISRDNAKNTVYLQMNSLNPADTAVYHCATVRLARKSAPYDYWGQGTQVTVSS | high polyreactivity |
| KVQLVESGGGLVQAGGSLRLSSADSGRIYVGYAIVWYRQEPGKEMEMVAGISRSGDSTYYADSVKGRFTISRDNAKNTVYLQMNSLKPEDTAVYYCAARINYWGYYYWGQGSQVTVSS | high polyreactivity |
| KVQVVESGGCLVQAGGSLRLSCAASGFSFGGYAMGCYRQAPGKDRELVAAINYRGGSTNYADSVKGRFTISRDNAKNTVYFQMNSLKPEDTAVYYCAASYFYWRANRGPRYYWGQGTQVTVSS | high polyreactivity |
| KVQVVESGGGFVQAGGSLRLSCAASGSTFVINAMGCYRQAPGKERELVAAITWGGGRTYYADSVKGRFTISRDNEKNTVYFQMNSLKPEDTAVYYCAAVGSGWKGDYWGQGTQVNVSS | low polyreactivity |
| KVQVVESGGGVVQAGGTLRLSCAASGSIAGNAMGWYRQAPGKERELVAAITFRGSGTYYADSVKGRFTISRDNAKNTVYLQINSLKPEDTAVYYCNAYRRGLSGYGYWGQGTQVTVSS | high polyreactivity |
| LVHHVESGGGLVQAGRSLRLTCAASGGTFFSNAMGWYRQSPGKERELVAGITSGGRTYYADAVKGRFTISRDNAMNTVYLQMNSMKPEDTAVFYCAAERFTRKYNYWGQGTQVTLSS | high polyreactivity |
| LVQLQESGGGLVQAGGSLRLSCAASGTISPGGYMAWYRQAPCTERELVASINVGGSTNYADSVKGRFTISRDNAKNTVYLQMNSLKPEDNALYYCAVWGRNRLQLSYWGQGTQVTVIS | low polyreactivity |
| LVQLVESGGGIVQAGGSLRLSCAASGLISQRNVMGWYRQAPGKERELVARISTSSSGTYYADSVKGRFTISRDNAKNTVYLQMNSLKPEDTAVYYCAKRWSPYYRLYSWGQGTQVTVSS | high polyreactivity |
| LVQLVESGGGIVQAGGSLRLTCAASGRTFWGYSMGWYRQSPGKERELVAAISWTGGRTYYADSVKGRFTISRDYAKNSVNLQMNSLKPEDTAVYDCARPYTTYDGRYHYWGQGTQVTVSS | high polyreactivity |
| LVQLVESGGGLGQAGGSLRLSCAASGFTFTIYAMGWYRQAPGKERELVAAISSSGYSTYYADSVKGRFTISRDNAKNTVYFQMISLKPEDTAVYYCAARGYYRSHLGFLYDYWGQGTQVTVSS | high polyreactivity |
| LVQLVESGGGLLQAGGSPRLSCAASGFNFRGYAMGWYRQAPRKERELVAAINSGGSTNYADSVKGRFTISRDNAKNTVYLQMNSLNPEDTAVSYCAARVKTSYRYLRTYNYWGQGTQVTVSS | high polyreactivity |
| LVQLVESGGGLVEAGGSLRLSWAASGIIFYYYAMGWYRQAPGKEREFVAGIRWSSGSTYYADSVKGRFTISRDNAKNTVYLQMNSLKPEDTAVYYCAAAYLSWYGGYYYWGQGTQVTVSS | low polyreactivity |
| LVQLVESGGGLVQAGGSLRLSCAASGFIFAIYDMGWYRQAPGKERELVAAITSSSSTYADSVKGRFTISRDNAKNTVYLQMNSLKPEDTAVYYCAADTYSYRYSNDYWGQGTQVTVSS | low polyreactivity |
| LVQLVESGGGLVQAGGSLRLSCAASGGTIVYYTMGWYRHAPGKERELVATIDNSDGSTYYADSVKGRFTISRDNAKNTVDLQMNSLKPEDTPVYYCSKSLPHSTSRDYWGQGTQLTVSS | low polyreactivity |
| LVQLVESGGGLVQAGGSLRLSCAASGNIFYWYAMGWYRQAPRKEREFVAAITRSGGSTSYADSVKGRFTISRDNAKNTVYLQMNSLKPEDTAVYYCNATHWVHFQEFYSWGQGTQVTVSS | low polyreactivity |
| LVQLVESGGGLVQAGGSLRLSCAASGSTFFYAMGWYRQAPGKERELVAGIVWSGGSTYYADSVKGRFTISRDNAKNTVYLQMNSLKPEDTAVYYCPAEYTDDYWGQGTQVTVSS | low polyreactivity |
| LVQLVESGGGLVQAGGSLRLSGAASGSPFRQNAMGWYRQAPGKERELVAAITWRGDNTYYADSVKGRFTISRDNAKKPVYFQRNSLKPDDTAVDYCAARWSYRLYWGYGYWGQGTEVTVSS | low polyreactivity |
| LVQVVESGGGLVQAGGSLGLSCAASGRIFRDYAMGWYRPATGKERELVAAISWSTVHTYYADSVKGRFTISRDNAKNTVYLQMNCLKPEDTAVYYCAVDRPGLTYYDYDYWGQGTQVTVSS | low polyreactivity |
| PVQLEESGGGLVQAGGSLRLSCPASGTSAYYARGWYRQAPGKERALVAGISIGGSTNYADSVKGRFTITRDNAKNTVYVQMTSLKPEDTAVAYCSVDGYVAFSPDRNNYWGQGTQVTVSS | low polyreactivity |
